Source: the Human Domainome abundance scans (Beltran et al. 2025)
± gives the uncertainty stated by the source.

B1: Calcium-binding protein 2, residues 155 to 219; numbered along this chain, Q9NPB3 (parent)
chain: RELRDAFREFDTNGDGRISVGELRAALKALLGERLSQREVDEILQDVDLNGDGLVDFEEFVRMMS

Variants of: B1
Experiment: abundance fitness (aPCA) (normalised: wild type 0, dead -1); higher = more abundant; growth selection in yeast, the domain comes from the species named
Conditions: Homo sapiens

Variant | abundance fitness
RELRDAFREFDTNGDGRISVGELRAALKACLGERLSQREVDEILQDVDLNGDGLVDFEEFVRMMS | 0.057 ± 0.092
RELRDAFREFDTNGDGRISVGELRAALKAWLGERLSQREVDEILQDVDLNGDGLVDFEEFVRMMS | -0.245 ± 0.055
RELRDAFREFDTNGDGRISVGELRAALKANLGERLSQREVDEILQDVDLNGDGLVDFEEFVRMMS | 0.151 ± 0.1
RELRDAFREFDTNGDGRISVGELRAALKAVLGERLSQREVDEILQDVDLNGDGLVDFEEFVRMMS | -0.053 ± 0.093
RELRDAFREFDTNGDGRISVGELRAALKAFLGERLSQREVDEILQDVDLNGDGLVDFEEFVRMMS | -0.17 ± 0.083
RELRDAFREFDTNGDGRISVGELRAALKAMLGERLSQREVDEILQDVDLNGDGLVDFEEFVRMMS | -0.595 ± 0.35
RELRDAFREFDTNGDGRISVGELRAALKAILGERLSQREVDEILQDVDLNGDGLVDFEEFVRMMS | -0.134 ± 0.16
RELRDAFREFDTNGDGRISVGELRAALKAPLGERLSQREVDEILQDVDLNGDGLVDFEEFVRMMS | -0.158 ± 0.094
RELRDAFREFDTNGDGRISVGELRAALKASLGERLSQREVDEILQDVDLNGDGLVDFEEFVRMMS | -0.216 ± 0.11
RELRDAFREFDTNGDGRISVGELRAALKAELGERLSQREVDEILQDVDLNGDGLVDFEEFVRMMS | -0.091 ± 0.1
RELRDAFREFDTNGDGRISVGELRAALKADLGERLSQREVDEILQDVDLNGDGLVDFEEFVRMMS | -0.101 ± 0.27
RELRDAFREFDTNGDGRISVGELRAALKAALGERLSQREVDEILQDVDLNGDGLVDFEEFVRMMS | -0.255 ± 0.072
RELRDAFREFDTNGDGRISVGELRAALKATLGERLSQREVDEILQDVDLNGDGLVDFEEFVRMMS | -0.008 ± 0.066
RELRDAFREFDTNGDGRISVGELRAALKAKLGERLSQREVDEILQDVDLNGDGLVDFEEFVRMMS | 0.134 ± 0.083
RELRDAFREFDTNGDGRISVGELRAALKAQLGERLSQREVDEILQDVDLNGDGLVDFEEFVRMMS | 0.015 ± 0.094
RELRDAFREFDTNGDGRISVGELRAALKARLGERLSQREVDEILQDVDLNGDGLVDFEEFVRMMS | 0.069 ± 0.052
RELRDAFREFDTNGDGRISVGELRASLKALLGERLSQREVDEILQDVDLNGDGLVDFEEFVRMMS | -0.214 ± 0.072
RELRDAFREFDTNGDGRISVGELRAHLKALLGERLSQREVDEILQDVDLNGDGLVDFEEFVRMMS | -0.228 ± 0.15
RELRDAFREFDTNGDGRISVGELRATLKALLGERLSQREVDEILQDVDLNGDGLVDFEEFVRMMS | -0.268 ± 0.091
RELRDAFREFDTNGDGRISVGELRAYLKALLGERLSQREVDEILQDVDLNGDGLVDFEEFVRMMS | -0.17 ± 0.1
RELRDAFREFDTNGDGRISVGELRARLKALLGERLSQREVDEILQDVDLNGDGLVDFEEFVRMMS | -0.371 ± 0.069

Variant | abundance fitness
RELRDAFREFDTNGDGRISVGELRAMLKALLGERLSQREVDEILQDVDLNGDGLVDFEEFVRMMS | 0.111 ± 0.11
RELRDAFREFDTNGDGRISVGELRAPLKALLGERLSQREVDEILQDVDLNGDGLVDFEEFVRMMS | -0.251 ± 0.07
RELRDAFREFDTNGDGRISVGELRAKLKALLGERLSQREVDEILQDVDLNGDGLVDFEEFVRMMS | -0.587 ± 0.43
RELRDAFREFDTNGDGRISVGELRANLKALLGERLSQREVDEILQDVDLNGDGLVDFEEFVRMMS | -0.266 ± 0.16
RELRDAFREFDTNGDGRISVGELRAWLKALLGERLSQREVDEILQDVDLNGDGLVDFEEFVRMMS | -0.454 ± 0.097
RELRDAFREFDTNGDGRISVGELRALLKALLGERLSQREVDEILQDVDLNGDGLVDFEEFVRMMS | 0.073 ± 0.058
RELRDAFREFDTNGDGRISVGELRAVLKALLGERLSQREVDEILQDVDLNGDGLVDFEEFVRMMS | -0.095 ± 0.1
RELRDAFREFDTNGDGRISVGELRAALKALAGERLSQREVDEILQDVDLNGDGLVDFEEFVRMMS | 0.127 ± 0.059
RELRDAFREFDTNGDGRISVGELRAALKALFGERLSQREVDEILQDVDLNGDGLVDFEEFVRMMS | 0.047 ± 0.13
RELRDAFREFDTNGDGRISVGELRAALKALEGERLSQREVDEILQDVDLNGDGLVDFEEFVRMMS | 0.069 ± 0.082
RELRDAFREFDTNGDGRISVGELRAALKALDGERLSQREVDEILQDVDLNGDGLVDFEEFVRMMS | -0.164 ± 0.19
RELRDAFREFDTNGDGRISVGELRAAEKALLGERLSQREVDEILQDVDLNGDGLVDFEEFVRMMS | -0.311 ± 0.077
RELRDAFREFDTNGDGRISVGELRAARKALLGERLSQREVDEILQDVDLNGDGLVDFEEFVRMMS | -0.192 ± 0.057
RELRDAFREFDTNGDGRISVGELRAAAKALLGERLSQREVDEILQDVDLNGDGLVDFEEFVRMMS | 0.122 ± 0.073
RELRDAFREFDTNGDGRISVGELRAATKALLGERLSQREVDEILQDVDLNGDGLVDFEEFVRMMS | 0.064 ± 0.082
RELRDAFREFDTNGDGRISVGELRAAYKALLGERLSQREVDEILQDVDLNGDGLVDFEEFVRMMS | -0.136 ± 0.28
RELRDAFREFDTNGDGRISVGELRAACKALLGERLSQREVDEILQDVDLNGDGLVDFEEFVRMMS | 0.014 ± 0.091
RELRDAFREFDTNGDGRISVGELRAAKKALLGERLSQREVDEILQDVDLNGDGLVDFEEFVRMMS | -0.006 ± 0.26
RELRDAFREFDTNGDGRISVGELRAANKALLGERLSQREVDEILQDVDLNGDGLVDFEEFVRMMS | 0.088 ± 0.13
RELRDAFREFDTNGDGRISVGELRAAIKALLGERLSQREVDEILQDVDLNGDGLVDFEEFVRMMS | 0.102 ± 0.11
